Test results from patent US11618913B2, “Method for preparing xyloglucan-oligosaccharides” (TECHNISCHE UNIVERSITÄT MÜNCHEN, priority 2017, dated 2023).
“Also recorded” adds a separate entry of the source.

Tests used:
Type in all cases: biochemical
[1] = Specific enzyme activity, reducing sugars by DNSA assay; conditions: dockerin domain deleted
Method: Enzyme activity: the release of micromol reducing sugars from arabinoxylan per mg of enzyme was determined with the DNSA assay.
Specific enzyme activity was determined by using a model substrate such as barley-beta-glucan (Megazyme). Endoglucanase activity is defined as the generation of reducing sugars from the model substrate. One unit of enzyme activity is defined as the amount of reducing sugars in micromol generated per mg of enzyme in one minute at 60° C. To define the enzyme profile and temperature and pH optimum the endoglucanases (50 ng/reaction) were incubated for 30 minutes at a temperature range from 50 to 80° C. in presence of 1% (wt/vol) barley-beta-glucan solved in citrate buffer with varying pH (range 4.0-8.0) (solution A: 0.2 M citric acid, 0.1 M NaCl; solution B: 0.4 M Na2HPO4, 0.1 M NaCl). Reducing sugars were measured by 3,5-dinitrosalicylic acid (DNSA) method: 50 microL sample were mixed with 75 microL DNSA-solution (10 g/L DNSA, 200 g/L K^+-Na^+-Tartrate, 10 g/L NaOH, 0.5 g/L Na2SO4, 2 g/L Phenol) in microtiter plates, incubated for 5 minutes at 95° C., cooled on ice and the absorption determined at 540 nm. For calibration, glucose solutions between 0 and 2 mg/mL were used.

[2] = Ki determination (end product inhibition) on Azo-Xyloglucan in presence of xyloglucan oligosaccharides; conditions: inhibition by xyloglucan oligosaccharides; non-competitive inhibition model; substrate 1-20 g/l
Method: To evaluate the suitability of SEQ ID NOs 1-4 for TKP hydrolysis, the Ki value of SEQ ID NO 3 was determined. Enzymatic activity was measured on Azo-Xyloglucan (Megazyme) according to the manufacturer's instruction. Substrate concentrations of 1-20 g/I were chosen and enzymatic activity was measured in the presence of increasing concentrations of xyloglucan oligosaccharides. Mode of Inhibition was assessed using a Lineweaver-Burke plot.

[3] = Hydrolysis of 20% (wt/vol) TKP/dTKP, XGOS release by HPAEC-PAD; conditions: 20% (wt/vol) dTKP/TKP, 60° C.
Method: For XGOS release 20% (wt/vol) 8 g of TKP or dTKP was dissolved in 40 ml demineralized water at 60° C. The enzyme was added at the desired concentrations, 3%, 0.65%, 0.05%, 0.03% or 0.006% (wt/wt TKP) referred to the substrate load. Incubation of the reaction mixture was carried out on a rotary shaker at 125 rpm and 60° C. The hydrolysis process was monitored by taking samples at different time points. The samples were centrifuged and the supernatant boiled for 5 min at 95° C. to denature residual proteins. For analysis, samples of the supernatant were withdrawn, tenfold diluted with double deionized water and measured by HPAEC-PAD.
For the analysis by HPAEC-PAD an ICS 3000 Dionex chromatography system from Thermo Fisher Scientific (Waltham, USA) equipped with a CarboPac™ PA1 column (4×250 mm) and a PA1-precolumn (4×50 mm) was used. The system was set up using PEEK tubing (0.25 mm i.d.), a GM-4 gradient mixer (2 mm), an ED amperometry cell with 0.25 microL channel volume, a pH-Ag/AgCl reference electrode, 0.002″ gasket and disposable gold electrodes. Runs were performed at a column temperature of 30° C. with an injection volume of 25 microL and a flow rate of 1 mL/min. […]
Quantification was performed using a XGOS standard mixture from Megazyme with 0.4 g/L, 0.2 g/L, 0.1 g/L, and 0.05 g/L.

B1: SEQ ID NO 4: endoglucanase obtained from SEQ ID NO: 2 by deleting the dockerin domain (protein)
chain: STAYTGMRDITSLELVNEMRIGWNLGNTLDAIGGETNWGNPKTTKEMIDKVKEMGFNTVRFPVTWGGHVGPAPDYKIDEGWLNRVEEVVNYALSNDMYAIINLHHENSWLVPTYAQEKRSTEQLVKIWEQVATRFKDYGDYLIFETMNEPRVENSPYEWSGGTPENRHVINNFNLAAVNTIRSTGGNNAKRHIMIPAHAASAIDIALNDLVIPNNDDRIIISVHNYSPYFFAMDVNGTASWGSDYDKASLAAELEALYNRFIKNGRAVVIGEFGSINKNNLSDRIRHAEFFAKEARKRGITVIWWDNGYNEGGKAESYALLDRRNLTWYHPEIAEALVRGAGGVPEPTPTPTPEPTPSPG
- enzyme activity increase in comparison to wildtype SEQ ID NO 2 ([1]; SEQ ID NO 2 activity set to 100%): 7 fold

B2: SEQ ID NO 3: endoglucanase obtained from SEQ ID NO: 1 by deleting the dockerin domain (protein)
chain: AKITENYQFDSRIRLNSIGFIPNHSKKATIAANCSTFYVVKEDGTIVYTGTATSMFDNDTKETVYIADFSSVNEEGTYYLAVPGVGKSVNFKIAMNVYEDAFKTAMLGMYLLRCGTSVSATYNGIHYSHGPCHTNDAYLDYINGQHTKKDSTKGWHDAGDYNKYVVNAGITVGSMFLAWEHFKDQLEPVALEIPEKNNSIPDFLDELKYEIDWILTMQYPDGSGRVAHKVSTRNFGGFIMPENEHDERFFVPWSSAATADFVAMTAMAARIFRPYDPQYAEKCINAAKVSYEFLKNNPANVFANQSGFSTGEYATVSDADDRLWAAAEMWETLGDEEYLRDFENRAAQFSKKIEADFDWDNVANLGMFTYLLSERPGKNPALVQSIKDSLLSTADSIVRTSQNHGYGRTLGTTYYWGCNGTVVRQTMILQVANKISPNNDYVNAALDAISHVFGRNYYNRSYVTGLGINPPMNPHDRRSGADGIWEPWPGYLVGGGWPGPKDWVDIQDSYQTNEIAINWNAALIYALAGFVNYN
modifications: Recombinat polypeptide
- enzyme activity increase in comparison to SEQ ID NO 1 ([1]; SEQ ID NO 1 activity set to 100%): 4 fold
- Ki [2]: 16.8 mM
- degree of hydrolysis after 24 h ([3]; 0.006% (wt/wt) enzyme): over 80%

B3: SEQ ID NO 2: wildtype glycoside hydrolase family 5 endoglucanase from Herbivorax saccincola DSM101079 (protein, listed as Herbivorax saccincola)
chain: STAYTGMRDITSLELVNEMRIGWNLGNTLDAIGGETNWGNPKTTKEMIDKVKEMGFNTVRFPVTWGGHVGPAPDYKIDEGWLNRVEEVVNYALSNDMYAIINLHHENSWLVPTYAQEKRSTEQLVKIWEQVATRFKDYGDYLIFETMNEPRVENSPYEWSGGTPENRHVINNFNLAAVNTIRSTGGNNAKRHIMIPAHAASAIDIALNDLVIPNNDDRIIISVHNYSPYFFAMDVNGTASWGSDYDKASLAAELEALYNRFIKNGRAVVIGEFGSINKNNLSDRIRHAEFFAKEARKRGITVIWWDNGYNEGGKAESYALLDRRNLTWYHPEIAEALVRGAGGVPEPTPTPTPEPTPSPGEDILYGDLNGDGIINSIDYNLLNRYILEVIDDLPVENYSKVADLNGDGVINSNDAVLLGRFILEIVDKFPVDK
- hydrolysis of TKP to DP7-DP9 after 24 h ([3]; 0.03% (wt/wt) enzyme): Complete hydrolysis; also recorded: completely
